Substitutions are numbered along the chain they refer to.
Columns and labels:
UL44ΔC290 wild-type = UL44ΔC290 wild-type (Human cytomegalovirus, UniProt P16790 1-290); experiment: disulfide crosslinking, nonreducing PAGE
[1] = target: T1, UL44ΔC290 (wild-type; N-terminal 290 residues of human cytomegalovirus UL44) (human cytomegalovirus, UniProt P16790 1-290); experiment: ITC
T1 sequence (looked up): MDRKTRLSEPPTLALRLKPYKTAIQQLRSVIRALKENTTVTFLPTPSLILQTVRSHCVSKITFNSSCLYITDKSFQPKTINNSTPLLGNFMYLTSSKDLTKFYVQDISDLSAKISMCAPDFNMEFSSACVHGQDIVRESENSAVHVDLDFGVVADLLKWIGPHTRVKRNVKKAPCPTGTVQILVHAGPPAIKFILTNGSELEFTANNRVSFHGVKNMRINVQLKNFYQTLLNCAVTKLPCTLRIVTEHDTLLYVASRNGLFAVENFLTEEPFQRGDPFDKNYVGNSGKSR

[2] = target: T2, UL44ΔC290 R165A/K167A/R168A/K171A/K172A (human cytomegalovirus, UniProt P16790 1-290, R165A | K167A | R168A | K171A | K172A); experiment: ITC
T2 sequence (looked up): T1 sequence (looked up) with R165A, K167A, R168A, K171A, K172A

[3] = target: T3, UL44ΔC290 K35A/K158A/K224A/K237A (human cytomegalovirus, UniProt P16790 1-290, K35A | K158A | K224A | K237A); experiment: ITC
T3 sequence (looked up): T1 sequence (looked up) with K35A, K158A, K224A, K237A

B1: 18 bp thiol-tethered DNA (dsDNA)
DNA 1: TACCGCAGCCATCAGAGT
DNA 2: ACTCTGATGGCTGCGGTA
modifications: single thiol tether on backbone phosphate between bases 11 and 12 of strand 1
binding result (UL44ΔC290 wild-type): binds

B2: peptide corresponding to the C-terminal 22 residues of UL54 (peptide, UniProt P08546 1221-1242, looked up)
peptide: LPRRLHLEPAFLPYSVKAHECC
binding result [1]: binds | binding result [2]: binds | binding result [3]: binds
